In the supplement of paper PMC10126150 one finds switch fluorescence ratio data, which are given here for 78 sequences.

± gives the standard deviation of the averaged measurements.

This data set has as its system ATP. Description: switch fluorescence ratio, 500 uM ATP over buffer (Cy3 cluster intensity, sum of 5 cycles each) (fold (ratio)); higher = stronger signal-on switching upon ATP binding; sequences stand for … in TCGTCGGCAGCGTCAGATGTGTATAAGAGACAGTTTTTTTTTTTTTTTTTTTTTTTTT…TC. The conditions noted are these: aptamer strand: ATP DNA aptamer (quencher-CACCTGGGGGAGTATTGCGGAGGAAGG + anchor), 100 nM annealed; ATP concentration: 500 uM. The procedure, abridged: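 Between each of five buffer/ATP cycles, the flow-cell was stripped with NaOH and re-annealed. Each cycle imaged Cy3-labelled switching-strand clusters, annealed to 100 nM quencher-labelled ATP aptamer on a modified Illumina MiSeq flow-cell, first in selection buffer and then after 15 min with 500 uM ATP at 22 °C. The fluorescence ratio is summed target-cycle over summed buffer-cycle Cy3 intensity per cluster, averaged per switch-domain sequence, with clusters outside 100-1000 RFU excluded.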
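Also: ATP exposure 15 min at 22 °C before imaging.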

For the sequence TTGCGGGGG, the switch fluorescence ratio was 1.01 ± 0.017.

For TTGCGGGGGT, the switch fluorescence ratio is 1 ± 0.054.

For TTGCGGTGCG, the switch fluorescence ratio came out at 1.01 ± 0.062.

Turning to TTGCGTAGCA, the switch fluorescence ratio is 0.977 ± 0.02.

Take TTGCGTAGGC: the switch fluorescence ratio came to 0.994 ± 0.034.

On to TTGCGTAGTT, for which the switch fluorescence ratio stood at 1.01 ± 0.029.

TTGCGTGTTG: the switch fluorescence ratio stood at 1.01 ± 0.019.

As for TTGCGTTGTT, the switch fluorescence ratio turned out to be 0.9695 ± 0.0043.

For the sequence TTGCTAAAAA, the switch fluorescence ratio was 1.04 ± 0.03.

On to TTGCTAAAGG, for which the switch fluorescence ratio stood at 0.964 ± 0.016.

Consider TTGCTAAATG, for which the switch fluorescence ratio stood at 1 ± 0.013.

Regarding TTGCTAAGCG, the switch fluorescence ratio was 1.02 ± 0.012.

With TTGCTACCAC, the switch fluorescence ratio is 1.07 ± 0.036.

Take TTGCTCATAT: the switch fluorescence ratio is 1.02 ± 0.049.

Regarding TTGCTCCTTT, the switch fluorescence ratio is 1.02 ± 0.03.

For the sequence TTGCTCTTTG, the switch fluorescence ratio worked out at 1.0058 ± 0.00073.

As to TTGCTGAGAC, the switch fluorescence ratio amounted to 1.24 ± 0.3.

Regarding TTGCTGAGCC, the switch fluorescence ratio was 0.96 ± 0.024.

Turning to TTGCTGGGAT, the switch fluorescence ratio turned out to be 1.02 ± 0.012.

As for TTGCTGGTCA, the switch fluorescence ratio came to 0.9897 ± 0.0042.

For the sequence TTGCTTGAGA, the switch fluorescence ratio turned out to be 0.996 ± 0.028.

As for TTGGAAACAG, the switch fluorescence ratio was 1 ± 0.014.

In the case of TTGGAAGAGT, the switch fluorescence ratio came to 0.9941 ± 0.0083.

Consider TTGGAAGCTT, for which the switch fluorescence ratio came to 1.23 ± 0.22.

In the case of TTGGAAGGTT, the switch fluorescence ratio turned out to be 1.32 ± 0.42.

For the sequence TTGGAATTTT, the switch fluorescence ratio was 1.03 ± 0.031.

Take TTGGACGGGA: the switch fluorescence ratio worked out at 1.29 ± 0.47.

With TTGGACTAAG, the switch fluorescence ratio came to 0.99 ± 0.044.

For the sequence TTGGAGCACT, the switch fluorescence ratio is 1.38 ± 0.075.

On to TTGGAGGAAC, for which the switch fluorescence ratio stood at 1.07 ± 0.12.

For the sequence TTGGAGGTTC, the switch fluorescence ratio was found to be 0.99 ± 0.063.

Take TTGGAGTGCT: the switch fluorescence ratio is 1.04 ± 0.045.

As to TTGGAGTGGG, the switch fluorescence ratio is 0.987 ± 0.051.

Turning to TTGGATAGGG, the switch fluorescence ratio was found to be 1.04 ± 0.067.

Consider TTGGATGAGC, for which the switch fluorescence ratio is 1.03 ± 0.07.

Take TTGGATGGGT: the switch fluorescence ratio was found to be 0.959 ± 0.05.

As to TTGGATGTCT, the switch fluorescence ratio stood at 1.008 ± 0.0072.

For the sequence TTGGATTGGG, the switch fluorescence ratio is 1.02 ± 0.064.

For TTGGCACGAT, the switch fluorescence ratio amounted to 1.012 ± 0.0011.

For TTGGCAGTCG, the switch fluorescence ratio amounted to 0.998 ± 0.02.

Turning to TTGGCAGTTA, the switch fluorescence ratio was found to be 1.03 ± 0.061.

Turning to TTGGCATGGC, the switch fluorescence ratio was determined as 1.04 ± 0.026.

As to TTGGCATGTC, the switch fluorescence ratio was determined as 1.06 ± 0.041.

Turning to TTGGCATTTA, the switch fluorescence ratio came to 1.034 ± 0.0054.

Turning to TTGGCCCCCA, the switch fluorescence ratio was 1.01 ± 0.017.

For the sequence TTGGCCGCGA, the switch fluorescence ratio is 2.1 ± 0.066.

For TTGGCCGTAC, the switch fluorescence ratio came out at 1.03 ± 0.029.

In the case of TTGGCGGGCG, the switch fluorescence ratio came out at 0.979 ± 0.034.

For TTGGCGGGTG, the switch fluorescence ratio was 1.04 ± 0.041.

With TTGGCTTGTC, the switch fluorescence ratio is 0.954 ± 0.019.

Take TTGGCTTTGG: the switch fluorescence ratio was 0.967 ± 0.0056.

For the sequence TTGGGAAACT, the switch fluorescence ratio is 1.15 ± 0.24.

Consider TTGGGAATCA, for which the switch fluorescence ratio turned out to be 0.988 ± 0.026.

Take TTGGGACGGA: the switch fluorescence ratio worked out at 1.01 ± 0.034.

Consider TTGGGACGGG, for which the switch fluorescence ratio was 0.994 ± 0.022.

TTGGGAGATG: the switch fluorescence ratio was 1.1 ± 0.13.

On to TTGGGAGCTT, for which the switch fluorescence ratio worked out at 1.01 ± 0.048.

Take TTGGGAGGGA: the switch fluorescence ratio was determined as 1 ± 0.038.

For TTGGGAGGGG, the switch fluorescence ratio is 1.04 ± 0.083.

In the case of TTGGGAGTTG, the switch fluorescence ratio was 0.984 ± 0.037.

Turning to TTGGGATATG, the switch fluorescence ratio is 1.02 ± 0.065.

Regarding TTGGGCACGG, the switch fluorescence ratio was determined as 0.991 ± 0.0052.

Take TTGGGCAGTA: the switch fluorescence ratio stood at 0.978 ± 0.057.

On to TTGGGCATCA, for which the switch fluorescence ratio amounted to 1 ± 0.065.

Take TTGGGCCGCT: the switch fluorescence ratio was determined as 0.974 ± 0.1.

For TTGGGCCTGG, the switch fluorescence ratio worked out at 0.9806 ± 0.0061.

With TTGGGCTGGT, the switch fluorescence ratio came out at 0.962 ± 0.035.

In the case of TTGGGCTTGA, the switch fluorescence ratio worked out at 1.01 ± 0.056.

In the case of TTGGGCTTGC, the switch fluorescence ratio is 1.04 ± 0.029.

Take TTGGGGAAAG: the switch fluorescence ratio is 0.986 ± 0.038.

Regarding TTGGGGACCC, the switch fluorescence ratio stood at 1.03 ± 0.035.

For TTGGGGACTC, the switch fluorescence ratio is 1 ± 0.026.

In the case of TTGGGGAGAC, the switch fluorescence ratio came out at 1.07 ± 0.061.

As to TTGGGGATGT, the switch fluorescence ratio came out at 1 ± 0.031.

As to TTGGGGATTC, the switch fluorescence ratio was 0.991 ± 0.02.

Regarding TTGGGGATTG, the switch fluorescence ratio came to 0.989 ± 0.021.

As for TTGGGGCACA, the switch fluorescence ratio is 1.01 ± 0.031.

As to TTGGGGCCAT, the switch fluorescence ratio was 0.999 ± 0.029.
